Reference: EP4717710A1 (UIF (University Industry Foundation), Yonsei University, dated 2026)

T1: IL-4R (recombinant protein) (human, UniProt P24394 26-232, biotinylated (Acro Biosystems ILR-H82E9) in the ELISA)
T1 construct: Bought recombinant IL-4R; also called IL-4 receptor; IL-4R molecule
T1 sequence (looked up): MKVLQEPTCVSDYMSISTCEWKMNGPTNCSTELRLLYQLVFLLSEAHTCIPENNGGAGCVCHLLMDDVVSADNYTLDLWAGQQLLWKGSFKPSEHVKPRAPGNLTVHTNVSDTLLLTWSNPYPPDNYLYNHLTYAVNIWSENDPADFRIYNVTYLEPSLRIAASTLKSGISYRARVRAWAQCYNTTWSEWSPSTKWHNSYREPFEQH

T2: IL-4R on cells (human, UniProt P24394 26-825)
T2 sequence (looked up): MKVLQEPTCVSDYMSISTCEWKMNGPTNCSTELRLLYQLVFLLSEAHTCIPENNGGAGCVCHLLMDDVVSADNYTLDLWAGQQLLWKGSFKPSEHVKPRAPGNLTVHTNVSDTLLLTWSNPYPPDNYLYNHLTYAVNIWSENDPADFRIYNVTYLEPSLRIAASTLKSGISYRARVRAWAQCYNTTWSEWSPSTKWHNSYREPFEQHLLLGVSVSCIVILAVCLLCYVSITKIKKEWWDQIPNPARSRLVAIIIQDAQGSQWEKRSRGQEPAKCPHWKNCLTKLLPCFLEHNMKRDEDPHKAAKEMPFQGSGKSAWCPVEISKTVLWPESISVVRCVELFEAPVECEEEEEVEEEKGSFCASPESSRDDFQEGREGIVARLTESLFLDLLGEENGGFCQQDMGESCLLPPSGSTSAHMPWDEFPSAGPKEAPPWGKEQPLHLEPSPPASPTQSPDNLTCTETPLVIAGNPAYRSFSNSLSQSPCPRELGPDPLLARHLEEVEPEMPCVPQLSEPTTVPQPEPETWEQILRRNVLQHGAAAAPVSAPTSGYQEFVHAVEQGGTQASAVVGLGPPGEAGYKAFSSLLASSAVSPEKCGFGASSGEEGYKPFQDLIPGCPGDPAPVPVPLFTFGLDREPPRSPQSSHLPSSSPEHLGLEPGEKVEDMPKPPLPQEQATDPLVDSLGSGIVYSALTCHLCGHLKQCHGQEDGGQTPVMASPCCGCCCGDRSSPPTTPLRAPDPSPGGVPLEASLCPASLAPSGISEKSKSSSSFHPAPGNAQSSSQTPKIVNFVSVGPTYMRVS


What was measured:
[1] = biological target: T1, IL-4R (recombinant protein); test: SPR
IL-4R on cells = biological target: T2, IL-4R on cells; test: cell-based or functional assay
[2] = biological target: T1, IL-4R (recombinant protein); test: ELISA, periplasmic extract captured by anti-c-Myc, 50 nM biotinylated IL-4R against MBP

Kd [1]	IL-4 signal blocking in STAT6-luciferase reporter cells (667 pM IL-4, 24 hours) (IL-4R on cells)	fold-change of OD values for IL-4R and MBP [2]	Binder
1420 nM	~2 fold concentration relative to dupilumab	> 1.7 fold	H5 nanobody (VHH, Synthetic nanobody (sybody, convex scaffold) expressed from pSBinit in E. coli and purified on TALON resin; It was detected with anti-Myc, so the tested protein probably carries Myc/His tags; also called WT H5; H5 wild-type nanobody) VHH: QVQLVESGGGSVQAGGSLRLSCAASGSISSITYLGWFRQAPGKEREGVAALSTSSGTTYYADSVKGRFTVSLDNAKNTVYLQMNSLKPEDTALYYCAAADKGREYTLARAKYWYWGQGTQVTVSA
1.06 nM	–	–	H5 E104R (VHH, also called H5 E104R mutant) VHH: QVQLVESGGGSVQAGGSLRLSCAASGSISSITYLGWFRQAPGKEREGVAALSTSSGTTYYADSVKGRFTVSLDNAKNTVYLQMNSLKPEDTALYYCAAADKGRRYTLARAKYWYWGQGTQVTVSA
708 nM	–	–	H5 A110Y (VHH, also called H5 A110Y mutant) VHH: QVQLVESGGGSVQAGGSLRLSCAASGSISSITYLGWFRQAPGKEREGVAALSTSSGTTYYADSVKGRFTVSLDNAKNTVYLQMNSLKPEDTALYYCAAADKGREYTLARYKYWYWGQGTQVTVSA
